Measurements from patent US20200181677A1, “SCREENING SYSTEM AND METHODS FOR IDENTIFYING ENZYME SUBSTRATES AND MODULATORS OF ENZYME ACTIVITY” (Regents of the University of Minnesota, priority 2017, published 2020).
“Also recorded” adds a separate entry of the source.

Experiments:
PKCα catalytic domain [1] = biological target: T1, PKCα catalytic domain (Homo sapiens, UniProt P17252); assay: Kinase activity assay (ATP consumption, Kinase-Glo Max); format: biochemical; settings: for Kinase activity toward the peptide substrate, in words: 500 μM peptide, isolated catalytic domain
T1 construct: All activity assays were performed with 50 nM isolated catalytic domain in PKC Buffer; fused substrate peptide with the fluorophore next to it (N, cleaved yes); second fluorophore of the mCerulean/mCitrine pair (next to the catalytic domain) (N); FLAG; made in house; host or cells: Sf9 insect cells (pBiex1), then on-resin TEV cleavage
Protocol: All activity assays were performed with 50 nM isolated catalytic domain in PKC Buffer at 21-22° C. for 2-6 minutes. Experiments comparing the basal activity of different FRET sensors (FIG. 5A) were performed with 50 μM MBP peptide from GenScript. For all other activity experiments (FIGS. 3F, 4B, 5B, and 6B), the final peptide concentration was 500 μM. Activity was measured by monitoring ATP consumption with the Kinase-Glo Max Luminescence Assay Kit (Promega; Madison, Wis.). End-point luminescence was measured in white, 96-well plates using a M5e Spectramax spectrophotometer (Molecular Devices; San Jose, Calif.). For each experimental condition, ≥2 independent experiments were performed for ≥3 protein preparations (N≥6).
Kinase specific activity was inferred from the ATP consumed in phosphorylation reactions using the KINASE-GLO® Max Luminescence Assay Kit (Promega; Madison, Wis.). ATP depletion was monitored with the KINASE-GLO® Reagent, which uses luciferin, oxygen, and ATP as substrates in a reaction that produces oxyluciferin and light. The luminescent signal is linearly proportional to the amount of ATP remaining following the phosphorylation reaction.
Activity assays were performed using the catalytic domain (25-75 nM) and 500-μM peptide in PKC Buffer. Reactions were initiated by the addition of 250 μM ATP to a total reaction volume of 80 μL in U-bottom, white 96-well plates. Following a 3 minute incubation at 22° C., reactions were quenched and subsequent steps were performed as per instructions from the kit provider. End-point luminescence was measured in a FLEXSTATION® 3 plate reader (Molecular Devices). […] For each experimental condition, ≥2 independent measurements were performed for ≥3 protein preparations (N≥6).

PKCα catalytic domain [2] = biological target: T1, PKCα catalytic domain; assay: Time-resolved fluorescence decay (TCSPC) of peptide-catalytic domain FRET sensors; format: binding; settings: means ± SEM, N = 3; for Mol Fraction Bound / Mol Fraction Unbound: eGFP/mCherry sensors, PKC Buffer containing 100 μM ATP; for Mol Fraction Bound: A2/(A1+A2); for τ2: second lifetime of bi-exponential fit, τ1 fixed to donor linker control (2.56 ± 0.01 ns)
Protocol: FIG. 4A is a graph plotting a comparison between steady-state FRET and fractional binding for four alanine-containing peptide sensors. For fractional binding, fluorescence decay single photon counting data was fit to I(t)=A1e^−t/τ^1+A2e^−t/τ^2, where τ1 was set to the lifetime of a 10 nm ER/K linker control (see, TABLE 1). The mol fraction of the bound state(s) was calculated as A2/(A1+A2).
Time-resolved fluorescence decay measurements were taken by single photon counting (SPC-130-EM, Becker & Hickl) using a 485 nm sub-nanosecond pulse diode laser (PicoQuant), a 519 bandpass filter, and a PMH-100 photomultiplier module (Photonics Solutions) (Autry et al., J. Biol. Chem. 287:39070-39082, 2012). Sensors contained the eGFP and mCherry FRET pair, and all experiments were performed with 50-100 nM protein in PKC Buffer containing 100 μM ATP and 0.1 mg/mL BSA. Data were fit to the second exponential decay, I(t)=A1e^−t/τ^1+A2e^−t/τ^2, where τ1 was set to the lifetime of a 10 nm ER/K linker control. Each experimental condition was collected from three independent protein batches (N=3).
Time-correlated single photon counting (TCSPC) was used to test whether changes in steady-state FRET reflect changes in fractional binding of the peptide to the catalytic domain (FIG. 1). TCSPC is a method for measuring time-resolved fluorescence that provides information on complex decay kinetics and population states (Lakowicz, Principles of Fluorescence Spectroscopy, 3rd ed., Springer, New York, 2006). Using this method, the relative population of interacting to non-interacting species was measured for four peptide sensors displaying a range of steady-state FRET ratios (FIG. 2).

PKCα catalytic domain [3] = biological target: T1, PKCα catalytic domain; assay: Steady-state FRET measurements of peptide sensors; format: binding; settings: for Binding strength of the peptide to the catalytic domain (steady-state FRET ratio), in words: 10 nm ER/K linker sensors; for Peptide interaction with the catalytic domain on addition of nucleotide (ΔFRET): 100 μM compound, alanine-substituted peptide sensors
Protocol: All experiments were performed with 30-50 nM protein in PKC Buffer at 21-22° C. Samples were prepared in tubes pre-coated with 0.1 mg/mL BSA to limit protein sticking to tube walls. Protein samples were excited at 430 nm (mCer) with an 8-nm band pass, and emission monitored from 450 to 650 nm. The FRET ratio was calculated from the ratio of the emission for mCit (525 nm) to mCer (475 nm). Final concentrations of 100 μM ATP, 100 μM ADP, 100 μM Sangivamycin, or BimI were added as indicated. For each experimental condition, ≥3 independent protein batches were used and at least two replicates were measured for each independent experiment (N≥3).
Protein-protein interactions in live cells using SPASM FRET sensors have been extensively monitored as described elsewhere (Sivaramakrishnan and Spudich, supra; Swanson et al., supra; and Malik et al., J Biol. Chem. 288:17167-17178, 2013). FRET measurements provide a direct measure of the binding strength of the substrate peptides to the kinase catalytic domain (Sivaramakrishnan and Spudich, supra; and Sommese et al., J. Biol. Chem. 292:2873-2880, 2017). Before each experiment, purified sensors were centrifuged (17645 g, 4° C.) to remove any insoluble protein. All experiments were performed with 50 nM protein in PKC Buffer at 21-22° C. Samples were prepared in tubes pre-coated with BSA (0.1 mg/ml) to limit protein loss through adsorption to tube walls. FRET measurements were performed using FluoroMax-4 fluorometer (Horiba Scientific). Sensors were loaded in a quartz cuvette (1 cm path length) and excited at 430 nm with an 8-nm band pass, and emission was monitored (4-nm band pass) from 450 to 650 nm. The FRET ratio was calculated from the ratio of the emission for mCitrine (525 nm) to mCerulean (475 nm). For each experimental condition, ≥2 experimental replicates were measured for ≥3 independent protein batches (N≥6).

Compound: 1: peptide substrate ADKRRSVRIGA, SEQ ID NO:4, from Kit/SCRF; Ala-substituted in FRET sensors [Peptide 1]
- Kinase activity toward the peptide substrate, in words (PKCα catalytic domain [1]): high activity

Compound: 2: peptide substrate RVVGGSLRGAQ, SEQ ID NO:6, from PTP1B [Peptide 2]
- Kinase activity toward the peptide substrate, in words (PKCα catalytic domain [1]; listed as p2): high kinase activity

Compound: 3: peptide substrate LAGGFSFKKNK, SEQ ID NO:8, from MARCKS (KLAGFSFKKNK) [Peptide 3]
- Kinase activity toward the peptide substrate, in words (PKCα catalytic domain [1]): high activity

Compound: 6: peptide substrate ASQKRPSQRH, SEQ ID NO:14, from Myelin Basic Protein; Ala-substituted in FRET sensors [Peptide 6]
- Mol Fraction Bound (PKCα catalytic domain [2]): 0.08 ± 0.01
- Mol Fraction Unbound (PKCα catalytic domain [2]): 0.92 ± 0.01
- τ2 (PKCα catalytic domain [2]): 0.49 ± 0.05 ns

Compound: 8: peptide substrate IVRKATLRRLL, SEQ ID NO:18, from EGF Receptor; Ala-substituted sensor form SEQ ID NO:17 [Peptide 8]
- Mol Fraction Bound (PKCα catalytic domain [2]): 0.11 ± 0.01
- Mol Fraction Unbound (PKCα catalytic domain [2]): 0.89 ± 0.01
- τ2 (PKCα catalytic domain [2]): 0.66 ± 0.06 ns
- Binding strength of the peptide to the catalytic domain (steady-state FRET ratio), in words (PKCα catalytic domain [3]): medium binding

Compound: 9: peptide substrate ARKRERTYSFGHHA, SEQ ID NO:20, Optimized AKT Sub. [Peptide 9]
- Binding strength of the peptide to the catalytic domain (steady-state FRET ratio), in words (PKCα catalytic domain [3]): medium binding

Compound: 10: peptide substrate RRRRSIIFI, SEQ ID NO:22, Optimized PKA Sub.; Ala-substituted in FRET sensors [Peptide 10]
- Mol Fraction Bound (PKCα catalytic domain [2]): 0.16 ± 0.01
- Mol Fraction Unbound (PKCα catalytic domain [2]): 0.84 ± 0.01
- τ2 (PKCα catalytic domain [2]): 0.83 ± 0.06 ns
- Kinase activity toward the peptide substrate, in words (PKCα catalytic domain [1]): poor activity

Compound: 11: peptide substrate FKLKRKGTFKKFA, SEQ ID NO:35, Optimized PKCβ Sub.; Ala-substituted sensor form SEQ ID NO:23 [Peptide 11]
- Mol Fraction Bound (PKCα catalytic domain [2]): 0.15 ± 0.01
- Mol Fraction Unbound (PKCα catalytic domain [2]): 0.85 ± 0.01
- τ2 (PKCα catalytic domain [2]): 0.88 ± 0.06 ns
- Kinase activity toward the peptide substrate, in words (PKCα catalytic domain [1]): poor activity
- Activity of the peptide FRET sensor for the same substrate (PKCα catalytic domain [1]; 10 nm linker sensors, 50 μM MBP peptide): much lower activity

Compound: 12: peptide substrate RRFKRQGSFFYFF, SEQ ID NO:26, Optimized PKCζ Sub. [Peptide 12]
- Kinase activity toward the peptide substrate, in words (PKCα catalytic domain [1]; listed as p12): lowest kinase activity; also recorded: poor activity
- Effect on catalytic turnover with low affinity-high activity peptide #6 (PKCα catalytic domain [1]; equimolar peptides #6 and #12): essentially inhibited

Compound: Nc1ncnc2c1ncn2[C@@H]1O[C@H](COP(=O)(O)OP(=O)(O)O)[C@@H](O)[C@H]1O [ADP, reference compound]
- Peptide interaction with the catalytic domain on addition of nucleotide (ΔFRET) (PKCα catalytic domain [3]): also occurred

Compound: Nc1ncnc2c1ncn2[C@@H]1O[C@H](COP(=O)(O)OP(=O)(O)OP(=O)(O)O)[C@@H](O)[C@H]1O [ATP, reference compound]
- Peptide interaction with the catalytic domain on addition of nucleotide (ΔFRET) (PKCα catalytic domain [3]): significant increase

Compound: CN(C)CCCn1cc(C2=C(c3c[nH]c4ccccc34)C(=O)NC2=O)c2ccccc21 [BimI, Bisindolylmaleimide I, reference compound]
- Effect on the ATP-dependent substrate-kinase interaction (steady-state FRET) (PKCα catalytic domain [3]; peptide #8 and #11 sensors, 100 μM ATP, BimI titration): abrogated

Compound: NC(=O)c1cn([C@@H]2O[C@H](CO)[C@@H](O)[C@H]2O)c2ncnc(N)c12 [Sangivamycin, reference compound]
- Peptide interaction with the catalytic domain on addition of nucleotide (ΔFRET) (PKCα catalytic domain [3]): also occurred

Compound: NRFARKGALRQKNV [Peptide 14]
- Binding strength of the peptide to the catalytic domain (steady-state FRET ratio), in words (PKCα catalytic domain [3]): bound more strongly
- Inhibition of ATP turnover of the catalytic domain for serine-containing peptide #14 (PKCα catalytic domain [1]; equimolar competing peptide): significantly better at inhibiting catalytic activity

Compound: NRFARKGDLRQKNV [Peptide S14D]
- Binding strength of the peptide to the catalytic domain (steady-state FRET ratio), in words (PKCα catalytic domain [3]): decreased affinity
